From PMC10718286

Tested on: C[S+](CC[C@H](N)C(=O)O)C[C@H]1O[C@@H](n2cnc3c(N)ncnc32)[C@H](O)[C@@H]1O
Experiment: purified protein
Details: catalytic SET domain; varied: cofactor

Substance: SETDB1 (full-length, SETDB1-FL) (Homo sapiens)
- kcat: 8.06e-05 s⁻¹
- kcat/Km: 88.9 M⁻¹ s⁻¹
